In patent US20250109178A1 (published 2025):
Where two headings read alike, the source gives them in different places.

Tests used:
Test in all cases: ELISA
[1] = target: T1, Fc-NKG2D.wt (natural human NKG2D ectodomain fused to the C-terminus of human IgG1 Fc)
[2] = target: T1, Fc-NKG2D.wt (natural human NKG2D …); remark: listed apart in the source
eNKG2D2 S|Y = target: eNKG2D2 S|Y
eNKG2D14 L|Y = target: eNKG2D14 L|Y
eNKG2D4 V|Y = target: eNKG2D4 V|Y
eNKG2D3 T|Y = target: eNKG2D3 T|Y
[3] = target: T1, Fc-NKG2D.wt (natural human NKG2D …); remark: listed apart in the source

Binder	EC50 [1] [nM]	EC50 [3] [nM]	also measured
rituximab-ULBP2.S3 MicAbody (bispecific antibody) heavy: not shown light: QIVLSQSPAILSASPGEKVTMTCRASSSVSYIHWFQQKPGSSPKPWIYATSNLASGVPVRFSGSGSGTSYSLTISRVEAEDAATYYCQQWTSNPPTFGGGTKLEIKRTVAAPSVFIFPPSDEQLKSGTASVVCLLNNFYPREAKVQWKVDNALQSGNSQESVTEQDSKDSTYSLSSTLTLSKADYEKHKVYACEVTHQGLSSPVTKSFNRGECAPTSSSGGGGSEPHSLSYDITVIPKFRPGPRWCAVQGQVDEKTFLHYDCGNKTVTPVSPLGKKLNVTTAWKAQNPVLREVVDILTEQLWDIQLENYTPKEPLTLQARMSCEQKAEGHSSGSWQFSFDGQIFLLFDSEKRMWTTVHPGARKMKEKWENDKVVATKLYLWSMGDCIGWLEDFLMGMDSTLEPS	52.7	–	–
ULBP2.wt rituximab-MicAbody (bispecific antibody) heavy: not shown light: QIVLSQSPAILSASPGEKVTMTCRASSSVSYIHWFQQKPGSSPKPWIYATSNLASGVPVRFSGSGSGTSYSLTISRVEAEDAATYYCQQWTSNPPTFGGGTKLEIKRTVAAPSVFIFPPSDEQLKSGTASVVCLLNNFYPREAKVQWKVDNALQSGNSQESVTEQDSKDSTYSLSSTLTLSKADYEKHKVYACEVTHQGLSSPVTKSFNRGECAPTSSSGGGGSEPHSLSYDITVIPKFRPGPRWCAVQGQVDEKTFLHYDCGNKTVTPVSPLGKKLNVTTAWKAQNPVLREVVDILTEQLRDIQLENYTPKEPLTLQARMSCEQKAEGHSSGSWQFSFDGQIFLLFDSEKRMWTTVHPGARKMKEKWENDKVVAMSFHYFSMGDCIGWLEDFLMGMDSTLEPS	1.02	–	EC50 [2]: 1.41 nM
ULBP2.wt (bispecific antibody) heavy: not shown light: QIVLSQSPAILSASPGEKVTMTCRASSSVSYIHWFQQKPGSSPKPWIYATSNLASGVPVRFSGSGSGTSYSLTISRVEAEDAATYYCQQWTSNPPTFGGGTKLEIKRTVAAPSVFIFPPSDEQLKSGTASVVCLLNNFYPREAKVQWKVDNALQSGNSQESVTEQDSKDSTYSLSSTLTLSKADYEKHKVYACEVTHQGLSSPVTKSFNRGECAPTSSSGGGGSEPHSLSYDITVIPKFRPGPRWCAVQGQVDEKTFLHYDCGNKTVTPVSPLGKKLNVTTAWKAQNPVLREVVDILTEQLRDIQLENYTPKEPLTLQARMSCEQKAEGHSSGSWQFSFDGQIFLLFDSEKRMWTTVHPGARKMKEKWENDKVVAMSFHYFSMGDCIGWLEDFLMGMDSTLEPS	–	–	EC50 (eNKG2D2 S|Y): 34.8 nM; EC50 (eNKG2D14 L|Y): 87.6 nM; EC50 (eNKG2D4 V|Y): 35.8 nM; EC50 (eNKG2D3 T|Y): 31.1 nM
rituximab-ULBP2.AA MicAbody (bispecific antibody) heavy: not shown light: QIVLSQSPAILSASPGEKVTMTCRASSSVSYIHWFQQKPGSSPKPWIYATSNLASGVPVRFSGSGSGTSYSLTISRVEAEDAATYYCQQWTSNPPTFGGGTKLEIKTVAAPSVFIFPPSDEQLKSGTASVVCLLNNFYPREAKVQWKVDNALQSGNSQESVTEQDSKDSTYSLSSTLTLSKADYEKHKVYACEVTHQGLSSPVTKSFNRGECAPTSSSGGGGSEPHSLSYDITVIPKFRPGPRWCAVQGQVDEKTFLHYDCGNKTVTPVSPLGKKLNVTTAWKAQNPVLREVVDILTEQLWDIQLENYTPKEPLTLQARMSCEQKAEGHSSGSWQFSFDGQIFLLFDSEKRMWTTVHPGARKMKEKWENDKVVATMFWSWSMGDCIGWLEDFLMGMDSTLEPS	–	655	–
rituximab-ULBP2.AB MicAbody (bispecific antibody) heavy: not shown light: QIVLSQSPAILSASPGEKVTMTCRASSSVSYIHWFQQKPGSSPKPWIYATSNLASGVPVRFSGSGSGTSYSLTISRVEAEDAATYYCQQWTSNPPTFGGGTKLEIKTVAAPSVFIFPPSDEQLKSGTASVVCLLNNFYPREAKVQWKVDNALQSGNSQESVTEQDSKDSTYSLSSTLTLSKADYEKHKVYACEVTHQGLSSPVTKSFNRGECAPTSSSGGGGSEPHSLSYDITVIPKFRPGPRWCAVQGQVDEKTFLHYDCGNKTVTPVSPLGKKLNVTTAWKAQNPVLREVVDILTEQLWDIQLENYTPKEPLTLQARMSCEQKAEGHSSGSWQFSFDGQIFLLFDSEKRMWTTVHPGARKMKEKWENDKVVATLMWQWSMGDCIGWLEDFLMGMDSTLEPS	–	389	–
rituximab-ULBP2.C MicAbody (bispecific antibody) heavy: not shown light: QIVLSQSPAILSASPGEKVTMTCRASSSVSYIHWFQQKPGSSPKPWIYATSNLASGVPVRFSGSGSGTSYSLTISRVEAEDAATYYCQQWTSNPPTFGGGTKLEIKTVAAPSVFIFPPSDEQLKSGTASVVCLLNNFYPREAKVQWKVDNALQSGNSQESVTEQDSKDSTYSLSSTLTLSKADYEKHKVYACEVTHQGLSSPVTKSFNRGECAPTSSSGGGGSEPHSLSYDITVIPKFRPGPRWCAVQGQVDEKTFLHYDCGNKTVTPVSPLGKKLNVTTAWKAQNPVLREVVDILTEQLWDIQLENYTPKEPLTLQARMSCEQKAEGHSSGSWQFSFDGQIFLLFDSEKRMWTTVHPGARKMKEKWENDKVVATILWQTSMGDCIGWLEDFLMGMDSTLEPS	–	130	–
